We go through 1 substance from article PMC11467351.

This assay addresses ButCD complex of B. fragilis GS077 (B. fragilis GS077 (endogenous)). Nature of the assay: cryo-EM structure.

For the substance ButCD complex of B. fragilis GS077, the stoichiometry N was found to be 2.
